Laboratory results as given in the DeepSol protein solubility set.

Experiment: soluble on expression in E. coli; label from the status in PepcDB or PDB records

Soluble on expression in E. coli, not soluble:
MKERIVGQSGELFCFGQMPVWKVENLPEVLLSGYSSEEGEWVCLNVLQGDVEVRAPDGSAEVWSADGGDCVFAPQQVFSVKPKTDDAEIRLSLYCAAADYFHKKYGMSATHSAVAAARDTVPAGRALDMGCGQGRNALFLGLKGFEVTAVDHNPAALANVAELAEAEGLNVRTLEYDLNAAALQGEFDYIVATVVLMFLMPQRVPDVIADMQAHTAAGGYNLIVSAMDTADFPCPMPFPFKFKEGELKDYYRDWELVEYKEELGSMHAKDENGNPIRFKFVTMLAKKPELEHHHHHH
MIAKHIDRFPLLKLDRVIDWQLIEQYLNRQKTRYLRDHRGRPAYPLLSMFKAVLLGQWHSLSDPELEHSLITRIDFNLFCRFDELSIPDYSTLCRYRNRLAQDNTLSELLELINRQLTEKGLKIEKASAAVVDATIIQTAGSKQRQAIEVDEEGQISGQTTPSKDSDARWIKKNGLYKLGYKQHTRTDAEGYIEKLHITPANAHECKHLSPLLEGLPKGTTVYADKGYDSAENRQHLEEHQLLDGIMRKAHRNRPLTEVQTKRNRYLSKTRYVVEQSFGTLHRKFRYARAAYFGLVKVSAQSHLKAMCLNLLKAANRLSAPAAA
MAHHHHHHMPGRPGSAEELYGLVCALQKQQQLTQVDLRAVQRRTEALRQELHCQEALIAEEQAKREELAAKHTPGDAELRLAEAHARGAARASADAAQELRGARRAFLQKCHAQVLSVGKGPTDPRRSGAPVAPSNCTPLSSAADESSSGSLSAVGLGPRREATLMPAAAVRQLLLLLREKLMRCIEVGSTAVPAPFVVASVVAPATEGGSSEQPRDCRPSDEQGAAAKVATSVMSPLTAAKSPHGPPSKSVTDACVRGASDDQSPPREKKSIGFAPECCFERVTAVPAANVNRGTRETWLTEGAPGACGSTAVVPPAANVTLDGDNHPSNACLRNDSRPRTQRFDGHFTVRVASRSATLVAEAAAMGAKRQRASEAAIAAQSSPPKAARADGDKGVSASRAPQGAGVAAAFPPAYTSNRDRLVAPVDLLSPRSAEARRNGSSGSGRRTVWTWTRGTSREP
MGGSHHHHHHGMASALRGLEEPGPRPTATPCGCVKPALETGNLLTEPVGYLESCFSAKNGTPRQPSICSYSRACLRIRKRIFNNPEHSLMGLEQFSHVWILFVFHKNGHLSCKAKVQPPRLNGAKTGVFSTRSPHRPNAIGLTLAKLEKVEGGAIYLSGIDMIHGTPVLDIKPYIAEYDSPQNVMEPLADFNLQNNQHTPNTVSQSDSKTDSCDQRQLSGCDEPQPHHSTKRKPKCPEDRTSEENYLTHSDTARIQQAFPMHREIAVDFGLESRRDQSSSVAEEQIGPYCPEKSFSEKGTDKKLERVEGAAVLQGSRAETQPMAPHCPAGRADGAPRSVVPAWVTEAPVATLEVRFTPHAEMDLGQLSSQDVGQASFKYFQSAEEAKRAIEAVLSADPRSVYRRKLCQDRLFYFTVDIAHVTCWFGDGFAEVLRIKPASEPVHMTGPVGSLVSLGS
GFVGRFGASSATTDRSKIFTADFRDFETSFSFQPGVFWGYDDFLSSALLLDIGYNKDKYELKYTVNGGRLLENYDFNSISFGLFPRLNISFVSIGVGGGIKIPLSLKYSKEGDAYSYNKYSLDFGDIKDSFETFYIPYVKVSLDFLIKTKGKFMMSLGVYANYDFPININRNGLLKDISIDKESIAAFDIGFQIGAYLVNR
MQWSVWKMEESLDTLFSLLPDVRRVSCEQEMQRFTSDRRKLEWLSVRVLLYSMLQEDKEIGYSSEGKPHLTDNSSFISISHTKGYVAVILSSVAPVGIDIEQYGQRVKRVYDRFIRSDERVEPYQGDETWSMLLHWSAKETIFKSMENADADLRKLCLSHFIPQSEGVFQVREYATERQQLFTVGYRICPDFVLTWTVTIS
MKKIALTLAATSITLVSYSAFSAQDAEHVRLATTTSTYHSGLLDYLLPQFEKDTGYKVDVIAAGTGKALKMGENGDVDLVMTHAPKAEGTFVEKGYGVLPRKLMYNDFVIVGPKADPAKIKDDESVLDVFKEIANKNATFISRGDDSGTHKKEMGFWAQTKIEPNFGGYRSVGQGMGPTLNMASEMQGYTMSDRGTWLAYQNKLDLEILFQGDEKLFNPYQVILVNPERYPTINYQGAKAFSDWLVNPRGQELINGFRLNGKQLFVANAESK
MGSDKIHHHHHHAVTSCLDTEEIEYSPDATIHAFALDTIHGVNYKFTIDQLGPDGVGLIYNQDSLPVGSDTIIDRILIKTLTTTSGIITAKNAEGQDTLFNYSDSIDFRGTMQKPMRIKVWAADMQYTKEYTISVRVHQQDPDSMNWTKMTDNFANYSGYQKSVTLNEDLLIYTSNTTAYQSSGDVISKGRSWTPVSITGLPDNIKLSSIISFGGKLYATNGESAYVSSDGALWNVATDLNKNGKVEMLIAPFPKNEGNLLGISGIAGIINNGDQSTFAITNPEATAWNIGSETVGADFPLENLSATSYLTATGIQTIAVMGNNRNANDTTSIAWTSQDGLLWIPLKTSSSTAYCPKLDNPSFFYYDNAFLAFGGNFETIYTSEAGIAWYKANKKIFLPAEFKDRGNNYSTVVDKNNFIWVIWSNGGANEVWRGRINKFGFKRQNNN
METTGDKAFYFLLKNCGHSLKFVDLRNSKRLHGRSFKLFGSQLESLYLDGSSKVDEMAFEDLCTSCGGLKELRINECYKITDENLSMIARRMEDLSILTLCGDGFKSLTSAGLIHISHMRNITELALDYNALVNDELLISISAGLPLLSSLSLANAGNDSSITAEGVSAIKNLKELTQLDASSLAAVNSKVLEQLGSLKKLEIIQLRNCTYLGDDGVRAKLRMPNIRHVDLSGSILVSNDSIQQFIKAFPSGPKLPPITLVVGGTAADASKLSVRGSRVVVDFSDYSTIVTMQTSQCSSSKFAIGGSASDAEGSDDEFEALTAQRSFYIDAVCGEEESPITDDGKLAEWAEKEARSLGLIKD
MGSDKIHHHHHHMSVVIEFDKVSRQFVRRQNASTIQERFMGLIRGLPPAEAFWAVRDVSFAVEEGQSIGLVGHNGAGKSTILKLMTRVLEPTSGRVTTQGRIAALLELGSGFHPELSGRENVFLYGSLMGFGRKEMQRKLPEIIEFSEIGPFLDTEVKHYSSGMYTRLAFAVATAVDPDILITDEVLAVGDETFQRKCIDRIYGFRRAGKTIVFVSHALDVVRSLCDVAVWLDHGEMKAYGEAGKVVDAYLADVNERERAEFEERLHSEDDDQIRESRMRRGSREVEITRVQLLDAQGRERITFRTHEPLTIRIHYLAHQRIERPVFGVGINHESGPWLTGPNTGFDKYHIPFIEGAGIIDYHIPRLPFLGGRYLVSASATDSTQLYEFDVHDRMYPLVIHSDGLSQRYGMVFCEGNWSWHG
PSQVFKPLVSLFSPIEPSVYEARGRLPREQLGETRLDYDRTFQLASVEAARLGIAEPIGELYYSFEYNFFGAGFGDHDDPMGKSWLFFHGSDGRLLGQEVAGQGSWGERFYRLQYPIHGGRIAGLPGR
MKYKILLKGKQYFATINLFDGRIAMDVQVQFMAELSQLIDKLSFLSRDQLKIALKGYKPAEVHTIEFIGEHSETNVTAIASALYVTRGAVSKITKRLISRGLIVRYQKPDNQKEVYFKLTAQGQEVFEIHKKFTNYFMQRDEPIFRDSPDAVATTLAFLHQYNAFLDQKLTIKK

Soluble on expression in E. coli, soluble:
MNSMEHLLKQAIKLRKEKKYAQSKEILIGLTNFTRDAEVLYQCAWIHDVMGLETEAMPYYEQAIANGLEGESLCGAYIGLGSTYRCIGEYDKAITVLETGLQQFPGNDVMKVFLSLAKFNVNDHESAMKLLLETVVKLEHHHHHH
MGSVSKANVPKIDVSPLFGDDQAAKMRVAQQIDAASRDTGFFYAVNHGINVQRLSQKTKEFHMSITPEEKWDLAIRAYNKEHQDQVRAGYYLSIPGKKAVESFCYLNPNFTPDHPRIQAKTPTHEVNVWPDETKHPGFQDFAEQYYWDVFGLSSALLKGYALALGKEENFFARHFKPDDTLASVVLIRYPYLDPYPEAAIKTAADGTKLSFEWHEDVSLITVLYQSNVQNLQVETAAGYQDIEADDTGYLINCGSYMAHLTNNYYKAPIHRVKWVNAERQSLPFFVNLGYDSVIDPFDPREPNGKSDREPLSYGDYLQNGLVSLINKNGQT
